The values that follow come from patent publication US20080138335A1 (Kyowa Kirin, published 2008).

The assay deals with T1, CD40 expressed on Ramos [ATCC] cells (UniProt P25942 21-277, limits assumed).
T1 construct: whole, on cells; Target of all flow cytometry and CD95 assays; endogenous CD40 on the Ramos cell line
Nature of the assay: flow cytometry (FACS) on Ramos cells expressing CD40, R-PE anti-human antibody.

T1 sequence (P25942 21-277 limits assumed): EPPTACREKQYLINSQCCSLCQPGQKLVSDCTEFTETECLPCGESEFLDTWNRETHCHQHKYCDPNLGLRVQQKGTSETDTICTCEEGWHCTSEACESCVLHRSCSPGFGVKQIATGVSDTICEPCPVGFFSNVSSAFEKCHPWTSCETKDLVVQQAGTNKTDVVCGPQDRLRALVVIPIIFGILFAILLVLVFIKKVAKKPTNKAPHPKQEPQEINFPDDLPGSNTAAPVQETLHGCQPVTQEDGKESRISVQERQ

B1: 4D11-G3[R435H] (antibody, V domains shown)
VH: QLQLQESGPGLLKPSETLSLTCTVSGGSISSPGYYGGWIRQPPGKGLEWIGSIYKSGSTYHNPSLKSRVTISVDTSKNQFSLKLSSVTAADTAVYYCTRPVVRYFGWFDPWGQGTLVTVSS
VL: AIQLTQSPSSLSASVGDRVTITCRASQGISSALAWYQQKPGKAPKLLIYDASNLESGVPSRFSGSGSGTDFTLTISSLQPEDFATYYCQQFNSYPTFGQGTKVEIK
notes: One-amino acid variant of 4D11-G3; also called IgG3[R435H]; N5KG3-R435H; not shown: human IgG3 heavy chain constant region, from vector N5KG3
Consider B1, for which the binding result is “binds”.

B2: 341-G [2/2/1/2] (antibody)
heavy: QVQLQQSGPGLVKPSQTLSLTCAISGDSVSSNSATWNWIRQSPSRDLEWLGRTYYRSKWYRDYVGSVKSRIIINPDTSNNQFSLQLNSVTPEDTAIYYCTRAQWLGGDYPYYYSMDVWGQGTTVTVSS
VL: EIVLTQSPATLSLSPGERATLSCRASQSVSSYLAWYQQKPGQAPRLLIYDASNRATGIPARFSGSGSGTDFTLTISSLEPEDFAVYYCQQRSNTFGPGTKVDIK
notes: also called IgG[2/2/1/2]; N5KG2212; not shown: human IgG2 heavy chain constant region, CH1 and hinge domains (EU 118-237), from vector N5KG2; human IgG1 heavy chain constant region, CH2 domain (EU 238-340), from vector N5KG1 by way of N5KG2211; human IgG2 heavy chain constant region, CH3 domain (EU 341-446), from vector N5KG2
B2: the binding result was “binds”.

B3: 341-G [2/2/2/1] (antibody)
heavy: B2 heavy
VL: B2 VL
notes: also called IgG[2/2/2/1]; N5KG2221; not shown: human IgG2 heavy chain constant region, CH1, hinge and CH2 domains (EU 118-340), from vector N5KG2; human IgG1 heavy chain constant region, CH3 domain (EU 341-446), from vector N5KG1
Regarding B3, the binding result is “binds”.
